From paper PMC3100534 (Nanomedicine : nanotechnology, biology, and medicine, 2011)

Columns and labels:
[1] = cited from earlier work
[2] = assay type: physicochemical; conditions: N = 90/x, ~90 DSPE-PEG2000 monomers per SSM, x = lipid molecules at saturation

In the case of Human neuropeptide Y [NPY], the half-life in vivo [1] is given as “minutes” and the “maximal number of NPY molecules that could self-associate with one SSM” value [2] is given as “three”.
